Km and Vmax data for 1 protein are collected here from patent publication US7056900B2, “Disaccharide derivatives for treating hyperglycaemia” (Sudzucker Aktiengesellschaft Mannheim Ochsenfurt, priority 1997, dated 2006).

Substrate in data set [1]: OC[C@H]1O[C@H](O[C@H]2[C@H](O)[C@@H](O)[C@H](O)O[C@@H]2CO)[C@H](O)[C@@H](O)[C@@H]1O
Put plainly: Inhibition of SI-catalyzed hydrolysis of maltose (SI/maltose), coupled HK/G6PDH optical test. The class given is biochemical, hog. The settings on record: other: SI/maltose basic kinetics, substrate, mean, 37° C., pH 7.0.

Substrate in data set [2]: OC[C@H]1O[C@@](CO)(O[C@H]2O[C@H](CO)[C@@H](O)[C@H](O)[C@H]2O)[C@@H](O)[C@@H]1O
In words: Inhibition of SI-catalyzed hydrolysis of sucrose (SI/sucrose), coupled HK/G6PDH optical test. The class given is biochemical, hog. The settings on record: other: SI/sucrose basic kinetics, substrate, mean, 37° C., pH 7.0.

B1: sucrase/isomaltase (SI) (Sus scrofa) (protein)
chain: MARKKFSGLEISLIVLFAIVTIIAIALVVVLATKTPAVEEISDSTSTPATTRTTTPYPGSGKCPSELNDPINERINCIPDQFPTQTLCATRGCCWKPWNDSIIPWCFFVDNHGYNVEGTTSTNTGLEAKLNRIPSPTLFGDDINSVLLTTQSQTPNRFRFKITDPNNRRYEVPHQFVKEFSGTAASDTLYDVQVIENPFSIKIIRKSNNRILFDTSIGPLVYSDQYLQLSARLSSEYIYGIGEHIHKRFRHDLYWKTWPIFTRDQLPGDNNNNLYGHQTFFMCIEDTSGKSFGVFLMNSNAMEIFIQPTPIVTYRIIGGILDFYIFLGDTPEQVVQQYQELIGRPAMPAYWSLGFQLSRWDYKSLDVVKEVVQRNREAGIPFDTQVTDIDYMEDKKDFTYDHVAFNGLPEFVQDLHDHGQKYVIILDPAISIQKLASGAAYETYDRGTAQNVWINESDGTTAIIGEVWPGLTVYPDFTSPNCIEWWANECSIFHQVVNYDGLWIDMNEVSSFVHGSEKGCSDNKLNYPPFTPGILDKLLYAKTVCMDSVQYWGKQYDVHSLYGYSMAIATEKAVEKVFRNKRSFILTRSTFAGSGSHAAHWLGDNTASWEQMEWSITGMLEFSLFGIPLVGADICGFVVETTEELCRRWMQLGAFYPFSRNHNAQGYEHQDPAFFGQNSLLVNSSKHYLNIRYTLLPFLYTLFYKAHMFGETVVRPILHEFYEDTNSWIEDTQFLWGPSLLITPVLKQGASTVSAYIPNATWYDYETGAKRPWRKQRVDMYLPADKIGLHLRGGYIIPIQQPAVTTTASRKNPLGLIVALDEYNTAEGDFFWDDGETKDTIQNGSYIFYTFSVSNNKLDIMCTHSSYQEGTTLAFETIKILGLIDAVTEVSVVEGDQPMSAHYNFTYDASNQYLLIYNLKFNLGRNFTVQWDQTFLDAEKFTCYPDTDTITKELCEERGCLWQESHLESKAPECFFPKEDNSYLVQSTQYSSLGVTADLQLNTASTRIKLPSDPIPTLRVEVKYHKDYMLQFKIYDPQNKRYEVPVPLNIPTTPTSTYENRLYDVEIKENPFGIQIRRRSTGKVIWDSRLPGFAFNNQFIQISTRLPSEYIYGFGEVEHTAFKRDLNWNTWGMFTRDQPPGYKLNSYGFHPYYMALEDESHAHGVLLLNSNAMDVTFQPTPALTYRIIGGILDFYMFLGPSPEVATKQYHEVIGRPVMPPYWALGFQLCRYGYRNTSQVEEVYNDMVTAQIPYDVQYTDIDYMERQLDFTIGEEFRELPKFVDKIRNEGMRYIIILDPAISGNETEPYPAFDRGQEKDVFVKWPNTSDICWAKVWPDLPNVTIDESLTEDEAVNASRAHVAFPDFFRNSTAEWWAREIIDFYNNQMKFDGLWIDMNEPSSFVNGTTTNQCRNTELNYPPYFPELTKRTEGLHFRTMCMETEQILSDGSSVLHYDVHNLYGWSQVKPTYDALQKATGKRGIVISRSTYPTAGRWAGHWLGDNYAKWDNLDKSIIGMMEFSLFGISYTGADICGFFNNSEYQLCARWMQLGAFYPYSRNHNIAFTRRQDPASWNETFSEMSRNILNIRYTLLPYFYTQMHEIHAYGGTVIRPLLHEFFNEKPTWDIFKQFLWGPAFLVTPVLEPFADTVQGYVPNARWFDYHTGKDIGIRETFHIFSAPLYEINLHVRGGHILPCQEPAQNTFFSRQNFMKLIVAADDNQTAQGNLFWDDGETIDTYERDLYFLVQFNFNKSILTSTILKNSYINRNEMRLGYVLIWGKEKTSVNEVNLIYNGNKETVPFVEDLNQEILNIDLRGLNVTLDEPIEISWS
notes: isolated by papain digestion from hog small intestine mucosa and enriched by ammoniumsulfate precipitation; from tissue; host or cells: hog small intestine mucosa
On to B1, for which, in data set [1], the Km turned out to be 11.2 ± 2.6 mM and the Vmax turned out to be 5900 µM/min. Also, in data set [2], the Km is 58.8 ± 11.4 mM and the Vmax turned out to be 7700 µM/min.

The term Km denotes the substrate concentration at which the rate is half of its maximum. Usually Vmax stands for the rate approached at saturating substrate.
